Data: patent US20130273076A1 (Harvard, published 2013)
Substitutions are numbered along the chain they refer to. In names and notes the source's numbering stands.

B1: endogenous mouse Ephexin5 (neurons, brain lysates) (enzyme, UniProt Q5FWH6 1-849, looked up)
chain: MSAQSLPAATPPTLKPPRIIRPRPPSRHRAPHSPGPLHNGSSPKALPQISNDASASVCTSIFWEPPTASLKPPALLPPSVSRTSLDSQTSPDSPSSTPSPSPVSRRSISPEPAPCSPVPPPKPSGSSRTPLPSGPTPLQDGSASAPGTVRRLAGKFEWGAEGKAQSSDSLERCSQGSTEVNGEKETPEAALSGNGSQENGTPDAALACPPCCPCVCHVAKPGLELRWVPVGSSEDILRIPCRASPLRASRSRINPPVISHPPVVLTSYRSTAERKLLPPLKPPKPTKVRQDISTSEELPQPDLKLPSEDGIQTATKAWEGDRPEGAPLNAPPVALEGREEEGLDGLKGLQWELPLQDEPLYQTYRAAVLSEELWGVGEDGGPSPANPGEAPTFSRLPGPRNTLWQELPAVRGSGLLESLSPQERRMQESLFEVVTSEASYLRSLRLLTDTFVLSQALRDTLTPRDHHTLFSNVQRVQSVSERFLGTLLSRVRSSPHITDLCDVVHAHAVGPFFVYVDYVRNQQYQEETYSRLMDTNVRFSAELRRLQSLPKCERLPLPSFLLLPFQRITRLRMLLQNILSQTEEGSSRQENAQKALGAVSKIIERCSAEVGRMKQTEELIRLTQRLRFHKVKALPLVSWSRRLELQGELTELGCRRGGVLFTSRPRFTPLCLLLFSDLLLITQPKSGQRLQVLDYAHRSLVQAQQVPDPSGPPTFRLSLLSNHQGRPTHRLLQAASLSDMQRWLGAFPTPGPLPCSPDTIYEDCECSQELCSEPSTPSKTEGQSLESKAPRKHLHKNPEGWLKGLPGAFPAQLVCEVTGEHERRKHLRQHQKLLEAVGPSSGTPDTPQP
B2: Ephexin5-Y361F-Myc (protein)
chain: B1 chain with Y361F

What was measured:
[1] = molecular target: endogenous RhoA of mouse brain (mouse, UniProt Q9QUI0 1-190); test: cell-based or functional assay
Sequence of endogenous RhoA of mouse brain (Q9QUI0 1-190 limits assumed): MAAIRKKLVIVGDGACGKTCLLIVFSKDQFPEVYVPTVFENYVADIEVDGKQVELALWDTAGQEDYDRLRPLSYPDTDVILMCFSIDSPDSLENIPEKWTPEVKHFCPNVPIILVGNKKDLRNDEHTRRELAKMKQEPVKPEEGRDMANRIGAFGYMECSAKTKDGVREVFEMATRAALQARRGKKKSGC

[2] = molecular target: Flag-EphB2-kinase dead (KD)
[3] = molecular target: Flag-EphA4
[4] = molecular target: Flag-EphB2-Acyto (cytoplasmic truncated version of EphB2)
[5] = molecular target: Flag-EphB2
[6] = molecular target: EphA2 (expressed in HEK293T cells)
Sequence of EphA2 (expressed in HEK293T cells) (P29317 whole entry): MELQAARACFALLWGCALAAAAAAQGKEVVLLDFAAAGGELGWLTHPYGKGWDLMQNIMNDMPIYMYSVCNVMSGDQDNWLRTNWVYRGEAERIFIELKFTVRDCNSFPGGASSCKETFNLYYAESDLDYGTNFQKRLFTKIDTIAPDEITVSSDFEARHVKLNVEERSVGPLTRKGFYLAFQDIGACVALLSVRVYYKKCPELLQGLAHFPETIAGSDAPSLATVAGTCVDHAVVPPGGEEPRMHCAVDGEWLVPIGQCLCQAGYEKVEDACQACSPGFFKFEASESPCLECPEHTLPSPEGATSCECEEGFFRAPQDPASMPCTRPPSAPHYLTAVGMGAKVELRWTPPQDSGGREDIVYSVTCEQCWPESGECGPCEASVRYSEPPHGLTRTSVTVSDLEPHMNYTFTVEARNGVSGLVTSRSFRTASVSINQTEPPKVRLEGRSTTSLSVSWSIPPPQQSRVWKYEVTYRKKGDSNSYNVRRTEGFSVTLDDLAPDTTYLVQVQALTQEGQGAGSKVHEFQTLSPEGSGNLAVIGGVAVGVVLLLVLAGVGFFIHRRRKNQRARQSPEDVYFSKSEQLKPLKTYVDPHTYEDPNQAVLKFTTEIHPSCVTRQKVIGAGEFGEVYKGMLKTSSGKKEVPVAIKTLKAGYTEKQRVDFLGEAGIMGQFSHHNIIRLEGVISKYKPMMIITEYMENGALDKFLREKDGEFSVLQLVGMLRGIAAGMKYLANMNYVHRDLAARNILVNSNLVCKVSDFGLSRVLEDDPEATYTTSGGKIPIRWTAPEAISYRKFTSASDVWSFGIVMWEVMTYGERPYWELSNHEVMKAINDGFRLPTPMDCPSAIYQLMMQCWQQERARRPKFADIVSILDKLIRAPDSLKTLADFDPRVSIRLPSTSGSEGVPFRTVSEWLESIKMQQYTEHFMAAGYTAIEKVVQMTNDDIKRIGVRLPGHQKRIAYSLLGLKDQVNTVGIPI

| anti-RhoA signal from RBD pulldown assays, Ephexin5-/- against wild type brain lysates [1] | Binder | phosphorylation of Ephexin5 at Y361 (anti-pY361 immunoblot) [2] | phosphorylation of Ephexin5 at Y361 (anti-pY361 immunoblot) [3] | phosphorylation of Ephexin5 at Y361 (anti-pY361 immunoblot) [4] | phosphorylation of Ephexin5 at Y361 (anti-pY361 immunoblot) [5] | tyrosine phosphorylation of Ephexin5 (anti-phosphotyrosine 4G10 immunoblot) [5] | phosphorylation of Ephexin5 at Y361 (anti-pY361 immunoblot) [6] |
| --- | --- | --- | --- | --- | --- | --- | --- |
| 4 fold | B1 | when wild type EphB2, but not a kinase dead or cytoplasmic truncated version of EphB2, was expressed in HEK293T cells together with Ephexin5, Ephexin5 become tyrosine phosphorylated at Y361 | when EphA4 or EphA2 were expressed in HEK293T cells they detected little to no phosphorylation of Ephexin5 at Y361 | when wild type EphB2, but not a kinase dead or cytoplasmic truncated version of EphB2, was expressed in HEK293T cells together with Ephexin5, Ephexin5 become tyrosine phosphorylated at Y361 | when wild type EphB2, but not a kinase dead or cytoplasmic truncated version of EphB2, was expressed in HEK293T cells together with Ephexin5, Ephexin5 become tyrosine phosphorylated at Y361 | in the presence of EphB2, Ephexin5-WT, but not Ephexin5-Y361F, become tyrosine phosphorylated | when EphA4 or EphA2 were expressed in HEK293T cells they detected little to no phosphorylation of Ephexin5 at Y361 |
|  | B2 |  |  |  |  | in the presence of EphB2, Ephexin5-WT, but not Ephexin5-Y361F, become tyrosine phosphorylated |  |
